B1: TPR t1 (parent)
chain: GACCAAUCUGCCCUCAGAGCUCGAGAACAUCUUCGGAUGCAGAGGAGGCAGGCUUCGGUGGCGCGAUAGCGCCAACGUCCUCAACCUCCAAUGCAUCCCACCACAUGAUGAUGCCUGAAGAGCCUUGGUUUUUUG

Variants of: B1
Assay: polymerase ribozyme fitness, log enrichment relative to wild type (log ratio); higher = more active; in vitro selection for triplet polymerase activity
Summary of the method: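 The heterodimeric triplet polymerase ribozyme's subunits were each mutagenized into PCR-built libraries and transcribed. Every library was selected once, in triplicate, by annealing with a biotinylated primer, the partner subunit and triplets, incubating frozen at −7 °C, gel-excising extended constructs, capturing on streptavidin beads and running RT-PCR. Input and output libraries were Illumina-sequenced, with genotypes kept only at ≥10 input reads and ≥1 read per output. Fitness, from inverse-variance-weighted replicate averages, is the base-2 logarithm of genotype enrichment over wild-type enrichment.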

| Variant | polymerase ribozyme fitness (log ratio) |
| --- | --- |
| GACCAAUCUGCCCUCAGAGCUCGAGAACAUCUUCGGAUGCAGAGGAGGCAGGCUUCGGUGGCCCGAUAGCGCCAACGUCUUCAACCUCCAAUGCAUCCCACCACAUGAUGAUGCCUGCAAAGCCUUGGUUUUUUG [G63C C80U A118C G120A] | -3.34 |
| GACCAAUCUGCCCUCAGAGCUCGAGAACAUCUUCGGAUGCAGAGGAGGCAGGCUUCGGUGGCCCGAUAGCGCCAACGUCCUCAACCUACAAUGAAUCCCACCACAUGAUGAUGCCUGAAGAGCCUUGGUUUUUUG [G63C C88A C94A] | -2.47 |
| GACCAAUCUGCCCUCAGAGCUCGAGAACAUCUUCGGAUGCAGAGGAGGCAGGCUUCGGUGGCCCGAUAGCGCCAACGUGCUCAACCUCCAAUGCAUCCCACCACAUGAUGAUGCCUGAAGAGUGUUGGUUUUUUG [G63C C79G C123U C124G] | 0.0911 |
| GACCAAUCUGCCCUCAGAGCUCGAGAACAUCUUCGGAUGCAGAGGAGGCAGGCUUCGGUGGCCCGAUAGCGCCAAAGUCCUCAACCUCCACUGCAUCCCCCCACAUGAUGAUGCGUGAAGAGACUUGGUUUUUUG [G63C C76A A91C A100C C115G C123A] | -4.91 |
| GACCAAUCUGCCCUCAGAGCUCGAGAACAUCUUCGGAUGCAGAGGAGGCAGGCUUCGGUGGCCCGAUAGCGCCAACGUCCUCAACCUCCAAUGCAUCCCACCACAUGAUGGUGCCUGAAGAGCCCUGGUUUUUUG [G63C A111G U125C] | -1.75 |
| GACCAAUCUGCCCUCAGAGCUCGAGAACAUCUUCGGAUGCAGAGGAGGCAGGCUUCGGUGGCCCGAUAGCGCCAACGUCCUCAACCUCCAAUGCAUCCCACCACAUGAUGCUGCCUGAAGAGCCUUGGUUUUUUG [G63C A111C] | -0.587 |
| GACCAAUCUGCCCUCAGAGCUCGAGAACAUCUUCGGAUGCAGAGGAGGCAGGCUUCGGUGGCCCGAUAGCGCCAACGUCCUCAACCUGCAAUGCAUCCCACCACAUGAUGAUGCCUGAAGAGCCUUGGUUUUUUG [G63C C88G] | -1.3 |
| GACCAAUCUGCCCUCAGAGCUCGAGAACAUCUUCGGAUGCAGAGGAGGCAGGCUUCGGUGGCCCGAUAGCGCCAACGUCAUCAACCUCCAAUGCAUCCCACCACAUGAUGAUGCCUGAAGAGCCUUGGUUUUUUG [G63C C80A] | -3.71 |
| GACCAAUCUGCCCUCAGAGCUCGAGAACAUCUUCGGAUGCAGAGGAGGCAGGCUUCGGUGGCCCGAUAGCGCCAACGUCGUCAACCUCCAAUGCAUCCCACCACAUGAUGAUGCCUGAAGAGCCUUGGUUUUUUG [G63C C80G] | -6.96 |
| GACCAAUCUGCCCUCAGAGCUCGAGAACAUCUUCGGAUGCAGAGGAGGCAGGCUUCGGUGGCCCGAUAGCGCCAACGUCCUCAACUUCCAAUGCAUCCCACCACAUGAUGAUGCCUGAAAAGCCUUGGUUUUUUG [G63C C86U G120A] | -0.703 |
| GACCAAUCUGCCCUCAGAGCUCGAGAACAUCUUCGGAUGCAGAGGAGGCAGGCUUCGGUGGCCCGAUAGCGCCAACGUCCUGAACCUCCAAUGCAUCCCACCACAUGAUGAUGCCUGAAGCGCCUUGCUUUUUUG [G63C C82G A121C G128C] | -1.24 |
| GACCAAUCUGCCCUCAGAGCUCGAGAACAUCUUCGGAUGCAGAGGAGGCAGGCUUCGGUGGCCCGAUAGCGCGAACGUCCUCAACCUCCAAUGCAUCCCACCACAUGAUGAUGCGUGAAGAGCCUUGGUUUUUUG [G63C C73G C115G] | -5.56 |
| GACCAAUCUGCCCUCAGAGCUCGAGAACAUCUUCGGAUGCAGAGGAGGCAGGCUUCGGUGGCCCGAUAGCGCCAACGUCCUCAACCUCCAAUGCAUCCCACCACAUGAUGCUGCCUGAAGCGCCUUGGUUUUUUG [G63C A111C A121C] | -0.162 |
| GACCAAUCUGCCCUCAGAGCUCGAGAACAUCUUCGGAUGCAGAGGAGGCAGGCUUCGGUGGCCCGAUAGCGCUAACGUCCUCAACCUCCAAUGCAUCCCACCACAUGAUGAUGCCUGAAGAGCCUUGGUUUUUUG [G63C C73U] | -0.69 |
| GACCAAUCUGCCCUCAGAGCUCGAGAACAUCUUCGGAUGCAGAGGAGGCAGGCUUCGGUGGCCCGAUAGCGGCAACGUCCUCAACCUCCAAUGCAUCCCACCACAUGAUGAUGCCUGAAGAGCCUUGGUUUUUUG [G63C C72G] | -5.46 |
| GACCAAUCUGCCCUCAGAGCUCGAGAACAUCUUCGGAUGCAGAGGAGGCAGGCUUCGGUGGCCCGAUAGCGCCAACGUUCUCAACCUCCAAUGCAUCCCACCACAUGAUGAUGCCUGAAGAGCCUUGGCUUUUUG [G63C C79U U129C] | -0.807 |
| GACCAAUCUGCCCUCAGAGCUCGAGAACAUCUUCGGAUGCAGAGGAGGCAGGCUUCGGUGGCCUGAUAGCGCCAACGUCCUCAACCUCCAAUGCAUCCCACCACAUGAUGAUGCCUGGAGAGCCUUGGUUUUGUG [G63C C64U A118G U133G] | -4.77 |
| GACCAAUCUGCCCUCAGAGCUCGAGAACAUCUUCGGAUGCAGAGGAGGCAGGCUUCGGUGGCCCGAUAGCGCCAACGUCCUCAAGCCCCAAUGCAUCCCACCACAUGAUGAUGCCUGAAGAGCCUUGGUUUUUUG [G63C C85G U87C] | -2.82 |
| GACCAAUCUGCCCUCAGAGCUCGAGAACAUCUUCGGAUGCAGAGGAGGCAGGCUUCGGUGGCCCGAUAGCGCCAACGUCCUCAAGCUCCAAUGCAUCCCACAACAUGAUGAUGCCUGAAGAGCCUUGGUUUUUUG [G63C C85G C102A] | -2.51 |
| GACCAAUCUGCCCUCAGAGCUCGAGAACAUCUUCGGAUGCAGAGGAGGCAGGCUUCGGUGGCCCGAUAGCGACAACGUGCUCAACCUCCAAUGCAUCCCACCACAUGAUGAUGCCUGAAGAGCCUUGGUUUUUUG [G63C C72A C79G] | -5.56 |
| GACCAAUCUGCCCUCAGAGCUCGAGAACAUCUUCGGAUGCAGAGGAGGCAGGCUUCGGUGGCCCGAUAGCGCCAACGUCCUCAACCUCCAAUGCAUCCCACCACAUGAUGUUGCCUGAAGAACCUUGGUUUUUUG [G63C A111U G122A] | -5.6 |

From the RNAGym collection of RNA variant scans (doi:10.1073/pnas.2313332121)
